This experiment has as its target T1, cell surface TM4SF4 of human cancer cell lines, P48230.
T1 chain: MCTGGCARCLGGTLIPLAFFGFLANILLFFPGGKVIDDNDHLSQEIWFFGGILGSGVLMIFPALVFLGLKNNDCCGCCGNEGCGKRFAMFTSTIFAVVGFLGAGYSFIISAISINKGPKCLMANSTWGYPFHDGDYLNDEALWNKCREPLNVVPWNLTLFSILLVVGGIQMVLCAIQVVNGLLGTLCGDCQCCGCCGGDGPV
As to the kind of experiment: flow cytometry on cells. The settings on record: chain shown with the change, n = 3, parent: est. 100, read off a plot. (In general: Flow cytometry measures light scatter and fluorescence of single cells or particles in a stream.)

Positions count from the first letter of the chain named. Names and notes keep the numbering of the source.

B1: humanized 2B7 antibody Hz2B7-1.1 L:N31V (protein)
chain 1: EITLKESGPTLVKPTQTLTLTCTFSGFSLSTYGIGVSWIRQPPGKALEWLAHIWWNDNKYYNTALKSRLTITKDTSKNQVVLTMTNMDPVDTATYYCARKEGSSAPFAYWGQGTLVTVSS
chain 2: DIVMTQSPDSLAVSLGERATINCKSSQSLLVSSNQKNYLAWYQQKPGQPPKLLIYFASTRESGVPDRFSGSGSGTDFTLTISLMQAEDVAVYYCQQHYRTPPTFGQGTKVEIK
In the case of B1, the percent of parent is, setting by setting: (A549 cells) 97%; (Calu-3 cells) 87%.

B2: humanized 2B7 antibody Hz2B7-1.1 L:N31F (protein)
chain 1: B1 chain 1
chain 2: B1 chain 2 with V31F
For the molecule B2, the percent of parent was determined as 130% (A549 cells) and 100% (Calu-3 cells).

Values taken from article PMC12680531.
